Experimental data taken from patent publication US20240412835.

System: PD-1 TALEN (left/right pair, split FokI) (synthetic construct)
Test: cell_activity
Details: median of 6 TIL lots (38.09-74.73), NGS; document lists two candidate PD-1 TALEN pairs and does not state which was used

PDCD1 exon 2 target site gave an activity of 54 % indels.
